IC50 and Kd data for 42 sequences are collected here from the Immune Epitope Database (IEDB).

The target of experiment [1] is HLA-A*02:01. In words: IEDB peptide-MHC binding, purified MHC/competitive/fluorescence; ≥ and ≤ were set here for values at or beyond the usual limits of such assays.
The target in experiment [2] is HLA-A*01:01. In words: IEDB peptide-MHC binding, purified MHC/competitive/radioactivity; filed as Kd, often an IC50 or EC50 that approximates it; ≥ and ≤ were set here for values at or beyond the usual limits of such assays.
The target in experiment [3] is HLA-A*30:02. The description is as above.
The target in experiment [4] is HLA-A*03:01. Nature of the experiment: IEDB peptide-MHC binding, purified MHC/direct/fluorescence; filed as Kd, often an IC50 or EC50 that approximates it; ≥ and ≤ were set here for values at or beyond the usual limits of such assays.
The target in experiment [5] is HLA-A*26:01. Nature of the experiment: IEDB peptide-MHC binding, purified MHC/competitive/radioactivity; filed as Kd, often an IC50 or EC50 that approximates it; ≥ and ≤ were set here for values at or beyond the usual limits of such assays.
Experiment [6] deals with HLA-A*02:06. Described as above.
For experiment [7], the target named is HLA-A*02:01. Nature of the experiment: IEDB peptide-MHC binding, purified MHC/direct/fluorescence; filed as Kd, often an IC50 or EC50 that approximates it; ≥ and ≤ were set here for values at or beyond the usual limits of such assays.
The target of experiment [8] is HLA-B*58:01. The description is as above. The conditions noted are these: source organism: Mycobacterium tuberculosis variant bovis.
The target in experiment [9] is HLA-A*23:01. Nature of the experiment: IEDB peptide-MHC binding, purified MHC/competitive/radioactivity; filed as Kd, often an IC50 or EC50 that approximates it; ≥ and ≤ were set here for values at or beyond the usual limits of such assays.
In experiment [10] the target is HLA-A*02:03. The experiment is described as above.
The target of experiment [11] is HLA-A*02:02. The experiment is described as above.
[12] abbreviates: source organism: Sudan ebolavirus.
[13] abbreviates: source organism: Dengue virus 3 Singapore/8120/1995.
The mark [14] stands for this setting: source organism: Dengue virus 2 Jamaica/1409/1983.
[15] abbreviates: source organism: Dengue virus 4 Philippines/H241/1956.
The mark [16] stands for this setting: source organism: Vaccinia virus WR.
Where [17] appears, read: source organism: SARS coronavirus Tor2.
Setting [18] is: source organism: Lymphocytic choriomeningitis virus (strain Armstrong).
Where [19] appears, read: source organism: Lymphocytic choriomeningitis virus (strain WE).

By IC50 is commonly meant the concentration needed to halve the response being measured. Sequence LASLTPKAQ gave an IC50 in experiment [1] (source organism: Variola virus) of at least 206000 nM.

In the case of YMDDRDINP, in experiment [1] (source organism: Vaccinia virus), the IC50 came to 27100 nM.

Consider SVIDCNTCV, for which the IC50 in experiment [1] (source organism: Hepatitis C virus genotype 1) stood at 5000 nM.

In the case of FSGLLIVKT, in [1] (source organism: Zaire ebolavirus), the IC50 is at least 370000 nM.

In experiment [1] (setting [12]), FKIDNNTFV returned an IC50 of 40800 nM.

ATWAENIQV gave an IC50 in experiment [1] (source organism: West Nile virus NY-99) of 780 nM.

As usually defined, the Kd is the concentration at which binding is half-saturated. As to ILPEEQDQNY, the figures for the Kd in experiment [2] (setting [13]) and in experiment [3] (setting [13]) were at least 38700 nM and at least 37200 nM, respectively.

For GLRQLANET, the IC50 in experiment [1] (setting [12]) amounted to 34200 nM.

Take LLQAGASVK: the Kd in experiment [4] (source organism: Vibrio parahaemolyticus RIMD 2210633) came out at 79 nM.

Turning to STIPETILEL, the results for the Kd in experiment [5] (setting [14]) and in experiment [6] (setting [14]) were 831 nM and 79.6 nM, respectively.

Regarding RLGPTLMCL, the half-maximal inhibitory concentration (IC50) in experiment [1] (source organism: Homo sapiens) came out at 1780 nM.

Regarding RMIAISAKV, in experiment [7] (source organism: Camelpox virus M-96), the Kd came to 3.4 nM.

TTTYKAFDW showed a Kd in experiment [8] of 71.3 nM.

On to TWLVHKQWFL, for which the dissociation constant (Kd) in experiment [9] (setting [15]) is 124 nM.

KVAAEGINY: the dissociation constant Kd in experiment [3] (source organism: Dengue virus 2 Peru/IQT2913/1996) worked out at 110 nM.

Sequence ILDGENCTL came in with a dissociation constant Kd in experiment [7] (source organism: Influenza A virus (A/Jiangsu/38/2004(H3N2))) of 37.8 nM.

With KLVETGFVI, the Kd in experiment [10] (setting [16]) was found to be 1070 nM; in [11] (setting [16]), 13200 nM; in experiment [6] (setting [16]) it was 200 nM.

As to EKLRIKGMSY, the dissociation constant Kd in experiment [5] (setting [15]) amounted to 4650 nM.

In the case of LSRKTFDSEY, the dissociation constant (Kd) turned out to be 1820 nM in experiment [2] (setting [14]) and 627 nM in experiment [3] (setting [14]).

As to GTKGKLYIA, the Kd is 55.9 nM in [10] (setting [16]), 1720 nM in experiment [11] (setting [16]) and 2530 nM in [6] (setting [16]).

For PTNDIPSLFI, the dissociation constant Kd in experiment [10] (setting [16]) was at least 61800 nM; in experiment [11] (setting [16]) it was 11000 nM; in [6] (setting [16]) it was 14800 nM.

Turning to ALLFLMSFT, the Kd in experiment [10] (setting [17]) worked out at 1990 nM; in experiment [11] (setting [17]), 2830 nM; in experiment [6] (setting [17]), 128 nM.

TLNRCALLR returned a dissociation constant Kd in [4] (source organism: Vibrio cholerae) of 2230 nM.

Take ITLILSNKLL: the Kd in experiment [10] (setting [16]) was determined as 4690 nM; in experiment [11] (setting [16]), 1090 nM; in [6] (setting [16]), 3890 nM.

Consider IFITDNVHTW, for which the Kd in [9] (setting [14]) turned out to be 36.7 nM.

Turning to DLLFNEKLKV, the Kd came to 317 nM in [10] (setting [16]), 357 nM in experiment [11] (setting [16]) and 2020 nM in [6] (setting [16]).

As for TIAVSVYGAI, the results for the equilibrium dissociation constant (Kd) in experiment [10] (setting [16]), in [11] (setting [16]) and in experiment [6] (setting [16]) were 582 nM, 1550 nM and 5390 nM, respectively.

For EYHLLYQKT, the results for the dissociation constant Kd in experiment [5] (setting [18]) and in experiment [3] (setting [18]) were at least 77900 nM and at least 35000 nM, respectively.

Take ATQFNFNGHT: the Kd is 11500 nM in [10] (setting [16]), at least 28600 nM in experiment [11] (setting [16]) and at least 26500 nM in experiment [6] (setting [16]).

With RVAAEGINY, in experiment [3] (setting [14]), the Kd is 48.4 nM.

Take DVSVSVGTGI: the Kd was 5830 nM in experiment [10] (setting [16]), 17900 nM in [11] (setting [16]) and at least 22100 nM in [6] (setting [16]).

For FSTSAYLISI, the Kd in [10] (setting [19]) is 13.5 nM; in [11] (setting [19]), 0.675 nM; in experiment [6] (setting [19]) it was 3.48 nM.

As for NMLDDFSAGA, the equilibrium dissociation constant (Kd) in experiment [10] (setting [16]) was 161 nM; in experiment [11] (setting [16]) it was 308 nM; in experiment [6] (setting [16]) it was 242 nM.

Regarding GAAITLVVI, the Kd in experiment [10] (setting [16]) turned out to be 3280 nM; in experiment [11] (setting [16]) it was 6450 nM; in experiment [6] (setting [16]) it was 2950 nM.

Consider KVASEGIKY, for which the equilibrium dissociation constant (Kd) in [3] (source organism: Dengue virus 3 Martinique/1243/1999) worked out at 1740 nM.

As to AIDRQVSVKL, the Kd in [10] (setting [16]) was 13100 nM; in [11] (setting [16]), 7900 nM; in [6] (setting [16]), at least 32000 nM.

On to GARVIWMDA, for which the dissociation constant (Kd) in experiment [10] (setting [16]) was 9140 nM; in experiment [11] (setting [16]), 4600 nM; in [6] (setting [16]), 2140 nM.

With CVDHPFIYV, the figures for the dissociation constant Kd in experiment [10] (setting [16]), in experiment [11] (setting [16]) and in [6] (setting [16]) were 1410 nM, 300 nM and 148 nM, respectively.

MTDDIGMGVT: the Kd in [2] (setting [14]) was 1130 nM.

For the sequence KIVQLPKRGV, the Kd in [10] (setting [16]) came out at 51.4 nM; in [11] (setting [16]), 4120 nM; in [6] (setting [16]), 2250 nM.

For ALLSCIRNA, the Kd in experiment [10] (setting [16]) is 6.22 nM; in experiment [11] (setting [16]), 120 nM; in [6] (setting [16]) it was 77.4 nM.

Consider IADIRDKYM, for which the results for the Kd in experiment [10] (setting [16]), in experiment [11] (setting [16]) and in [6] (setting [16]) were 230 nM, 63.5 nM and at least 58100 nM, respectively.
